The values below come from patent publication US20180037631A1 (Bristol-Myers Squibb, published 2018).

Common to all, as to assay: cell-based or functional assay
In assay [1] the target is T1, EGFR on the surface of human tumour cells (A431, H292) (human, UniProt P00533 25-1210).
Assay [2] has as its target T1, EGFR on the surface of human tumour …. The source holds these as a separate data set.
The target is the same in assay [3]. This is another data set of the same source.

Where two headings read alike, the source gives them in different places.

B1: E90 (designed binder)
10Fn3 domain: MGVSDVPRDLEVVAATPTSLLISWYWEGLPYQYYRITYGETGGNSPVQEFTVPRDVNTATISGLKPGVDYTITVYAVTDWYNPDTHEYIYHTIPISINYRTEIDKPSQ
Consider B1, for which the “% inhibition of EGFR phosphorylation at 100 nM binder, cell-based assay” value (from here on “% inhibition of EGFR phosphorylation”) in assay [1] is 81.3%.

B2: E89 (designed binder)
10Fn3 domain: MGVSDVPRDLEVVAATPTSLLISWDDPAANRQYYRITYGETGGNSPVQEFTVPYDLRTATISGLKPGVDYTITVYAVTDYYNPATHQYKYSQSPISINYRTEIDKPSQ
For B2, the “% inhibition of EGFR phosphorylation” value in assay [1] is 82.6%.

B3: E87 (designed binder)
10Fn3 domain: MGVSDVPRDLEVVAATPTSLLISWGSPLIEYQYYRITYGETGGNSPVQEFTVPGGLSTATISGLKPGVDYTITVYAVTDYFNPATHEYTYHVSPISINYRTEIDKPSQ
With B3, in assay [1], the “% inhibition of EGFR phosphorylation” value came to 87%.

B4: E31 (designed binder)
10Fn3 domain: MGVSDVPRDLEVVAATPTSLLISWTYNDGSYQYYRITYGETGGNSPVQEFTVPYAVYTATISGLKPGVDYTITVYAVTDFYNPATYEYIYHTTPISINYRTEIDKPSQ
As for B4, the “% inhibition of EGFR phosphorylation” value in assay [2] is 75.8%.

B5: E49 (designed binder)
10Fn3 domain: MGVSDVPRDLEVVAATPTSLLISWHSGPREYQYYRITYGETGGNSPVQEFTVPGQVYTATISGLKPGVDYTITVYAVTDFFNPITHYYYYELTPISINYRTEIDKPSQ
On to B5, for which the “% inhibition of EGFR phosphorylation” value in assay [3] was determined as 83.5%.

B6: E46 (designed binder)
10Fn3 domain: MGVSDVPRDLEVVAATPTSLLISWQVGSVVYQYYRITYGETGGNSPVQEFTVPRDVLTATISGLKPGVDYTITVYAVTDYKPKPDGPHIYQAVPISINYRTEIDKPSQ
As for B6, the “% inhibition of EGFR phosphorylation” value in assay [3] was determined as 77%.

B7: E88 (designed binder)
10Fn3 domain: MGVSDVPRDLEVVAATPTSLLISWSATNKTYQYYRITYGETGGNSPVQEFTVPGGVRTATISGLKPGVDYTITVYAVTDYFNPTTHEYIYQTTPISINYRTEIDKPSQ
B7: the “% inhibition of EGFR phosphorylation” value in assay [1] turned out to be 89.3%.

B8: E19 (designed binder)
10Fn3 domain: MGVSDVPRDLEVVAATPTSLLISWETESNAYQYYRITYGETGGNSPVQEFTVPGQIYTATISGLKPGVDYTITVYAVTDYKPHADGPHTYHESPISINYRTEIDKPSQ
Turning to B8, in assay [2], the “% inhibition of EGFR phosphorylation” value turned out to be 84.6%.

B9: E20 (designed binder)
10Fn3 domain: MGVSDVPRDLEVVAATPTSLLISWMTSPSVYQYYRITYGETGGNSPVQEFTVPGPVQTATISGLKPGVDYTITVYAVTDYKEHQHAPHQYTAHPISINYRTEIDKPSQ
With B9, the “% inhibition of EGFR phosphorylation” value in assay [2] was 80.2%.

B10: E52 (designed binder)
10Fn3 domain: MGVSDVPRDLEVVSATPTSLLISWQVPRPMYQYYRITYGETGGNSPVQEFTVPGGVRTATISGLKPGVDYTITVYAVTDYWFKEYREDPISINYRTEIDKPSQ
For the molecule B10, in assay [3], the “% inhibition of EGFR phosphorylation” value turned out to be 75.3%.

B11: E50 (designed binder)
10Fn3 domain: MGVSDVPRDLEVVAATPTSLLISWTVGLSVYQYYRITYGETGGNSPVQEFTVPGMVSTATISGLKPSVDYTITVYAVTDYKPHADGPHTYHEYPISINYRTEIDKPSQ
For B11, the “% inhibition of EGFR phosphorylation” value in assay [3] was 77.4%.

B12: E18 (designed binder)
10Fn3 domain: MGVSDVPRDLEVVAATPTSLLISWFVTHVAYQYYRITYGETGGNSPVQEFTVPGGLSTATISGLKPGVDYTITVYAVTDYKPHADGPHTYHESPISINYRTEIDKPSQ
For B12, the “% inhibition of EGFR phosphorylation” value in assay [2] amounted to 91.1%.

B13: E58 (designed binder)
10Fn3 domain: MGVSDVPRDLEVVAATPTSLLISWSAVRWRYQYYRITYGETGGNSPVQEFTVPGGVRTATISGLKPGVDYTITVYAVTDFYNPRTHVYIYDQFPISINYRTEIDKPSQ
On to B13, for which the “% inhibition of EGFR phosphorylation” value in assay [3] came to 79.7%.

B14: E86 (designed binder)
10Fn3 domain: MGVSDVPRDLEVVAATPTSLLISWDSGENNYQYYRITYGETGGNSPVQEFTVPGGVRTATISGLKPGVDYTITVYAVTDYYNPKTHEYNYLTIPISINYRTEIDKPSQ
Consider B14, for which the “% inhibition of EGFR phosphorylation” value in assay [1] came out at 84.7%.

B15: E91 (designed binder)
10Fn3 domain: MGVSDVPRDLEVVAATPTSLLISWSAPWRTYQYYRITYGETGGNSPVQEFTVPYDVYTATISGLKPGVDYTITVYAVTDYLNPNTLEYTYQRIPISINYRTEIDKPSQ
With B15, the “% inhibition of EGFR phosphorylation” value in assay [1] was determined as 84.7%.

B16: E48 (designed binder)
10Fn3 domain: MGVSDVPRDLEVVAATPTSLLISWRSSATAYQYYRITYGETGGNSPVQEFTVPGRVYTATISGLKPGVDYTITVYAVTDFFNWATHEYIYHSTPISINYRTEIDKPSQ
On to B16, for which, in assay [3], the “% inhibition of EGFR phosphorylation” value came out at 88.6%.

B17: E47 (designed binder)
10Fn3 domain: MGVSDVPRDLEVVAATPTSLLISWNPASKDYQYYRITYGETGGNSPVQEFTVPGQVPTATISGLKPGVDYTITVYAVTDFYNPATHEYKYDSTPISINYRTEIDKPSQ
B17: in assay [3], the “% inhibition of EGFR phosphorylation” value was 76.9%.

B18: E54 (designed binder)
10Fn3 domain: MGVSDVPRDLEVVAATPTSLLISWKASYTGYNYYRITYGETGGNSPVQEFTVPRDVMTATISGLKPGVDYTITVYAVTDFYNPDTHQYTYRRIPISINYRTEIDKPSQ
In the case of B18, the “% inhibition of EGFR phosphorylation” value in assay [3] was determined as 76.1%.

B19: E56 (designed binder)
10Fn3 domain: MGVSDVPRDLEVVAATPTSLLISWYSGDYHYQYYRITYGETGGNSPVQEFTVPHDLETATISGLKPGVDYTITVYAVTDYYNPATHYYKYEQTPISINYRTEIDKPSQ
Consider B19, for which, in assay [3], the “% inhibition of EGFR phosphorylation” value was found to be 84.2%.

B20: E51 (designed binder)
10Fn3 domain: MGVSDVPRDLEVVAATPTSLLISWGGHRAVYQYYRITYGETGGNSPVQEFTVPGAVYTATISGLKPGVDYTITVYAVTDYYNPDTHEYKYHQYPISINYRTEIDKPSQ
B20: the “% inhibition of EGFR phosphorylation” value in assay [3] was 82.8%.

B21: E57 (designed binder)
10Fn3 domain: MGVSDVPRDLEVVAATPTSLLISWIVQGGRYQYYRITYGETGGNSPVQEFTVPGMVTTATISGLKPGVDYTITVYAVTDYYNPSTHEYKYHQTPISINYRTEIDKPSQ
Consider B21, for which the “% inhibition of EGFR phosphorylation” value in assay [3] is 75.5%.

B22: E53 (designed binder)
10Fn3 domain: MGVSDVPRDLEVVAATPTSLLISWSVGGMIYQYYRITYGETGGNSPVQEFTVPGMVTTATISGLKPGVDYTITVYAVTDYYNPATHEYKYHQTPISINYRTEIDKPSQ
As to B22, the “% inhibition of EGFR phosphorylation” value in assay [3] stood at 79.8%.

B23: E55 (designed binder)
10Fn3 domain: MGVSDVPRDLEVVAATPTSLLISWSVGQVFYQYYRITYGETGGNSPVQEFTVPYDVYTATISGLKPGVDYTITVYAVTDYYNPATHEYKYHQTPISINYRTEIDKPSQ
For the molecule B23, the “% inhibition of EGFR phosphorylation” value in assay [3] stood at 99.1%.
